For data set [1], the system named is HIV-1 virions. The data set is described as follows: CAT activity assay of HIV-1 virions from co-transfected 293T cells (incorporation into virions). It is filed as cell-based. The method, then:
About 10^6 293T cells were grown in dishes having a diameter of 10 centimeters. These cells were co-transfected with 10 micrograms of either plasmid pNL4-3 or plasmid pNL4-3DVpr, and with 10 micrograms of a plasmid selected from the group consisting of plasmid pSLXCMV-CAT, plasmid pSLXCMV-VPR-CAT, and plasmid pSLXCMV-dWF-CAT. After transfection, the cells were incubated in medium for about seven hours. The medium was then removed and replaced with fresh medium, and cells and medium were collected about forty-eight hours after the medium was replaced. At that time, the medium comprised virus produced by the cells. The amount of virus present in the medium was determined by assessing the amount of HIV-1 p24 antigen in the medium, using a p24 ELISA kit obtained from Dupont (Wilmington, Del.).
CAT activity assays were performed as described (Refaeli et al., 1995, Proc. Natl. Acad. Sci. USA 92:3621-3625). Briefly, about 10^6 transfected cells were harvested by centrifugation. Pelleted cells were lysed in 0.9 milliliter of CAT lysis buffer (Promega Corp., Madison, Wis.) to yield a crude extract. 50 microliters of crude extract was used in CAT assays, and the results of the assays were normalized to account for variation in the protein content of the various crude extracts which were made.
Virions obtained from the medium in which transfected 293T cells were grown were concentrated by ultracentrifuging the medium in a Sorval A-621 rotor for about three hours at 20,000 rotations per minute. […] The amount of HIV-1 p24 antigen in each fraction was assessed, and fractions containing the greatest amounts of p24 were selected. […] CAT activity was assessed in lysed virion preparations.
CAT activity was assessed by thin-layer chromatographic separation of ^14C-chloramphenicol from its acetylated derivatives. Radioactivity was quantitated by standard liquid scintillation methods. […]

Data set [2] relates to IN-Defective HIV-1 Particles. The data set is described as follows: Syncytia formation assay with IN-defective HIV-1 particles complemented with IN chimeras. It is filed as cell-based. The text has this: Using the calcium phosphate method for delivery of DNA into cells (Profection™, Promega Corp., Madison, Wis.), cells of human kidney carcinoma cell line 293T were transfected using HIV-1 proviral clones or co-transfected with these templates and SLX-CMV-VPR-IN, SLX-CMV-VPR-PR-IN, SLX-CMV-WF-IN, or SLX-CMV-dWF-PR-IN. Three days post-transfection, cell supernatants containing virus were harvested and clarified by low-speed centrifugation. HeLa-CD4-LTR/β-gal cells grown in either 60×14 or 35×10 millimeter plates were infected in duplicate at about 10-15% confluence using various viral stocks. Addition of supernatant to these MAGI reporter cells was adjusted, based upon HIV-1 p24 antigen content as quantitated by ELISA analysis (Kimpton et al., 1992, J. Virol. 66:2232-2239). MAGI cells contain an integrated cassette comprising the β-galactoside gene (β-gal) under the control of the HIV-1 long terminal repeat, and therefore can be stained for β-galactosidase activity (typically 48-72 hours post-infection).
Infected cells were fixed in a solution comprising 0.2% (v/v) glutaraldehyde and 1% (v/v) formaldehyde for 5 minutes at room temperature. Following fixation, cells were washed with phosphate buffered saline and stained using bromo-4-chloro-3-indolyl-β-D-galactopyranoside for 2 hours at 37° C. Representative fields of stained cells were photographed and numbers of deeply stained syncytia were determined either by visual counting through a microscope or from series of photographs taken in various fields of the stained cells using an Olympus CK2 microscope.
IN activity was detected using the syncytia formation assay described in this Example.

Data set [3] relates to HIV-1 virions. The experiment in a line: Western blotting analyses of complemented HIV-1 virions. The note with it: integration-competent progeny virions. The method, then:
293T cells were grown in duplicate 100×20 millimeter culture dishes and transfected as described in the previous section. Virions released into the cell culture medium 2 ½ to 3 days post-transfection were centrifuged at 2000 rpm for 5 minutes at 4° C. to remove cellular debris. Afterward, virions were concentrated by adding 10 milliliters of cell medium atop 2 milliliters of buffered, isotonic 20% (w/v) sucrose, and ultracentrifuging the cushioned medium at 40,000 rpm for 2 hours. The bulk of the solution was removed by careful pipetting, and pelleted virions (visible as slight white pellets) were removed from the bottom of the ultracentrifuge tubes by resuspension in residual medium, typically resulting in a volume of 60 to 100 microliters of concentrated virus particles.
Particles were loaded into 10-20% (w/v) Tris-HCl or Tris-tricine precast gradient gels (Bio-Rad Laboratories, Richmond, Calif.) and electrophoresed until the bromphenyl blue marker migrated to at least the bottom of the gel. […] IN or IN chimera proteins were detected using a rabbit anti-IN polyclonal serum and visualized by chemiluminescence development (NEN Life Science Products) of bound HRP-conjugated anti-rabbit 1gG antisera used at 1/1500 dilution (Sigma Chemical Co., St. Louis, Mo.).
A general note: In western blotting, separated proteins are transferred to a membrane and probed.

[4] abbreviates: virions from 293T cells co-transfected with pNL4-3 (Vpr expressed).
Setting [5] is: HIV-1 provirus template D116N (Table 4).
The mark [6] stands for this setting: HIV-1 provirus template D116N, average of duplicate experiments (Table 4).
Setting [7] is: HIV-1 provirus template IN (1-4) (Table 5).
The mark [8] stands for this setting: HIV-1 provirus template IN (1-234) (Table 5).

Experimental findings from US6541002B1, “Compositions and methods for providing a protein to a virion” (Thomas Jefferson University, priority 1998, dated 2003) are described below.

B1: WF-CAT (protein)
chain: MQPWWAFFGGGSSWWSFSMGPTRMEKKITGYTTVDISQWHRKEHFEAFQSVAQCTYNQTVQLDITAFLKTVKKNKHKFYPAFIHILARLMNAHPEFRMAMKDGELVIWDSVHPCYTVFHEQTETFSSLWSEYHDDFRQFLHIYSQDVACYGENLAYFPKGFIENMFFVSANPWVSFTSFDLNVANMDNFFAPVFTMGKYYTQGDKVLMPLAIQVHHAVCDGFHVGRMLNELQQYCDEWQGGA
With B1, the “CAT activity of virions (conversion of chloramphenicol to an acetylated product)” value in data set [1] (setting [4]) is 28 % conversion; in data set [1] (virions from 293T cells co-transfected with pNL4-3DVpr (Vpr not expressed)), 8 % conversion.

B2: dWF-IN: dWF peptide (SEQ ID NO: 1) fused at its carboxyl terminus to the amino terminus of HIV-1 IN (protein)
chain: MQPWWAFFGGGSSWWSFSMGPTRFLDGIDKAQEEHEKYHSNWRAMASDFNLPPVVAKEIVASCDKCQLKGEAMHGQVDCSPGIWQLDCTHLEGKVILVAVHVASGYIEAEVIPAETGQETAYFLLKLAGRWPVKTVHTDNGSNFTSTTVKAACWWAGIKQEFGIPYNPQSQGVIESMNKELKKIIGQVRDQAEHLKTAVQMAVFIHNFKRKGGIGGYSAGERIVDIIATDIQTKELQKQITKIQNFRVYYRDSRDPVWKGPAKLLWKGEGAVVIQDNSDIKVVPRRKAKIIRDYGKQMAGDDCVASRQDED
B2: the “% of Wild Type (syncytia)” value in data set [2] (setting [5]) stood at 20.8%. Besides, the “Number of Syncytia Formed” value in data set [2] (setting [6]) was 42; in data set [2] (setting [7]) it was 10; in data set [2] (setting [8]), 14. The “amount of fusion protein incorporated into progeny virions” value in data set [3] is reported as “equal to the amount of IN(D116N) protein incorporated into progeny virions”.

B3: dWF-PR-IN: dWF peptide (SEQ ID NO: 1) fused to the HIV-1 protease cleavage site (PR), which is fused to the amino terminus of IN (protein)
chain: B2 chain
modifications: left off: small tags and cut ends
As to B3, the “% of Wild Type (syncytia)” value is given as 25.7% in data set [2] (setting [5]) and 21.7% in data set [2] (HIV-1 provirus template IN (1-234) (Table 4)). Moreover, the “Number of Syncytia Formed” value in data set [2] (setting [6]) is given as 52; in data set [2] (setting [7]), 18; in data set [2] (setting [8]), 20; in data set [2] (HIV-1 provirus template IN (1-234), average of duplicate experiments (Table 4)), 44.

B4: CAT: chloramphenicol acetyltransferase, a protein which does not normally comprise a Vpr-binding region (protein)
chain: MEKKITGYTTVDISQWHRKEHFEAFQSVAQCTYNQTVQLDITAFLKTVKKNKHKFYPAFIHILARLMNAHPEFRMAMKDGELVIWDSVHPCYTVFHEQTETFSSLWSEYHDDFRQFLHIYSQDVACYGENLAYFPKGFIENMFFVSANPWVSFTSFDLNVANMDNFFAPVFTMGKYYTQGDKVLMPLAIQVHHAVCDGFHVGRMLNELQQYCDEWQGGA
B4: in data set [1] (setting [4]), the “CAT activity of virions (conversion of chloramphenicol to an acetylated product)” value amounted to 8 % conversion.
